Measurements: patent US20220096608

Target: α2-antiplasmin (UniProt P08697)
Sequence (P08697 40-491): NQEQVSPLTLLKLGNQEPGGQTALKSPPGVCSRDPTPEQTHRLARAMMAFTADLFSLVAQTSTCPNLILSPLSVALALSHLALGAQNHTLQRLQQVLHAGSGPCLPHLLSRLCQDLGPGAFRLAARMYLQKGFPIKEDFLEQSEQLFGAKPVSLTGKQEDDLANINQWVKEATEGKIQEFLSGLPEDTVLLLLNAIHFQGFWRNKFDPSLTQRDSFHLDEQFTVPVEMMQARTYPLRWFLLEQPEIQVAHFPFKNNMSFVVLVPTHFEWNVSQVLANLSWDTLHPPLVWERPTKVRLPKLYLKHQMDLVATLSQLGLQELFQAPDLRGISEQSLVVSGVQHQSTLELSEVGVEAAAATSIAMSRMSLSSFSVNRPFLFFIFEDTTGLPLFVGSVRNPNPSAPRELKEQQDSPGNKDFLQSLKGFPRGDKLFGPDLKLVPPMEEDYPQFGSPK

Sequence of Mono-PEGylated Micro-plasmin variant (20 kDa PEG) V88C Catalytic Domain (SEQ ID NO. 10) (chain, as listed by the source V88C): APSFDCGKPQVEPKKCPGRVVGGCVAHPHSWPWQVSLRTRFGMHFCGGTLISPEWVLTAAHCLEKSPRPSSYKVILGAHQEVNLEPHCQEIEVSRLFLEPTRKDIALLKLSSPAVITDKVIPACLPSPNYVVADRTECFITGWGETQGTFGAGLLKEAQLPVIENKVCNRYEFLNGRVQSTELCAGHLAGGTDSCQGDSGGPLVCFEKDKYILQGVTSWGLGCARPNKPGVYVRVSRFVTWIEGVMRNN
Sequence of Mono-PEGylated Micro-plasmin variant (20 kDa PEG) E85C Catalytic Domain (SEQ ID NO. 7) (chain, as listed by the source E85C): as the sequence (chain, as listed by the source V88C) above, with E85C, C88V counted along it
Sequence of Mono-PEGylated Micro-plasmin variant (20 kDa PEG) P86C Catalytic Domain (SEQ ID NO. 8) (chain, as listed by the source P86C): as the sequence (chain, as listed by the source V88C) above, with P86C, C88V counted along it
Sequence of Mono-PEGylated Micro-plasmin variant (40 kDa PEG) V88C Catalytic Domain (SEQ ID NO. 10) (chain, as listed by the source V88C): as the sequence (chain, as listed by the source V88C) above
Sequence of Mono-PEGylated Micro-plasmin variant (40 kDa PEG) E85C Catalytic Domain (SEQ ID NO. 7) (chain, as listed by the source E85C): as the sequence (chain, as listed by the source V88C) above, with E85C, C88V counted along it
Sequence of Bi-PEGylated Micro-plasmin variant (20 kDa-20 kDa PEG) E85C-H87C Catalytic Domain (SEQ ID NO. 11) (chain, as listed by the source E85C H87C): as the sequence (chain, as listed by the source V88C) above, with E85C, H87C, C88V counted along it
Sequence of Mono-PEGylated Micro-plasmin variant (40 kDa PEG) P86C Catalytic Domain (SEQ ID NO. 8) (chain, as listed by the source P86C): as the sequence (chain, as listed by the source V88C) above, with P86C, C88V counted along it

For “Mono-PEGylated Micro-plasmin variant (40 kDa PEG) P86C Catalytic Domain (SEQ ID NO. 8)”, the “In vitro Half-life (of inactivation by α2-antiplasmin)” value (“In vitro Half-life” for short) was >7 min.
With “Mono-PEGylated Micro-plasmin variant (20 kDa PEG) P86C Catalytic Domain (SEQ ID NO. 8)” the “In vitro Half-life” value was 6 to 7 min.
“Mono-PEGylated Micro-plasmin variant (40 kDa PEG) E85C Catalytic Domain (SEQ ID NO. 7)” was tested, and the “In vitro Half-life” value was >7 min.
For “Bi-PEGylated Micro-plasmin variant (20 kDa-20 kDa PEG) E85C-H87C Catalytic Domain (SEQ ID NO. 11)”, the “In vitro Half-life” value was >10 min.
In the case of “Mono-PEGylated Micro-plasmin variant (20 kDa PEG) E85C Catalytic Domain (SEQ ID NO. 7)”, the “In vitro Half-life” value is reported as 6 to 7 min.
“Mono-PEGylated Micro-plasmin variant (20 kDa PEG) V88C Catalytic Domain (SEQ ID NO. 10)” was tested, and the “In vitro Half-life” value was 6 to 7 min.
In the case of “Mono-PEGylated Micro-plasmin variant (40 kDa PEG) V88C Catalytic Domain (SEQ ID NO. 10)”, the “In vitro Half-life” value is reported as >7 min.
